Laboratory results taken from the supplement of paper PMC6757056.
± gives the standard deviation of the averaged measurements.

B1: library; a variant is named by its letters at N, in order (parent)
chain: GCUGUCACCGGUGUAUUACCCUAGUGGUCGACCGGUCUGAUGAGUCUNNNNNNAGACGAAACAGC

How the values were obtained:
[1] = variants of: B1; experiment: normalized RNA/DNA level with ligand (relative to sTRSVctl = 100) (log10 (% of sTRSVctl)); ligand: hypoxanthine (xanthine aptamer); higher = less ribozyme self-cleavage, higher mRNA level; conditions: ligand concentration (+) RNA-Seq: 5 mM, HEK293T, reporter: mCherry (pCS4076), ligand present: yes
In short: (§1)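 Only sequences with at least 100 DNA reads were analyzed, from HEK293T cells transfected with 4 µg per 6-well well of ribozyme switch library plasmids 72 h before RNA extraction with EDTA. Any ligand was added 1 h before transfection. RNA level was defined as RNA over DNA reads, normalized to a spiked-in non-cleaving sequence or to the top sequences, then scaled and log-transformed. The top set was 25 sequences, and the scaling was ×100 followed by log10.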

[2] = variants of: B1; experiment: normalized RNA/DNA level without ligand (relative to sTRSVctl = 100) (log10 (% of sTRSVctl)); ligand: hypoxanthine (xanthine aptamer); higher = less ribozyme self-cleavage, higher mRNA level; conditions: HEK293T, reporter: mCherry (pCS4076), ligand present: no
In short: as §1

Row | Variant | normalized RNA/DNA level with ligand (log10) [1] | normalized RNA/DNA level without ligand (log10) [2]
1 | CUGGGU | 2 ± 0.069 | 1.881 ± 0.005
2 | CUGGGC | 1.98 ± 0.047 | 1.902 ± 0.0037
3 | AUGUCC | 1.98 ± 0.11 | 1.884 ± 0.011
4 | AUGUCG | 1.863 ± 0.018 | 1.52 ± 0.036
5 | AUGUCA | 1.95 ± 0.08 | 1.741 ± 0.0086
6 | UUGUUA | 1.983 ± 0.0091 | 2.01 ± 0.043
7 | UUGUUU | 2.039 ± 0.018 | 2.04 ± 0.042
8 | UUGUUG | 2.027 ± 0.012 | 1.9556 ± 0.0016
9 | UUGUUC | 2.012 ± 0.012 | 2.01 ± 0.032
10 | AUUGAA | 1.91 ± 0.047 | 1.75 ± 0.026
11 | GUGCUC | 1.909 ± 0.011 | 1.85 ± 0.034
12 | GUGCUA | 1.93 ± 0.017 | 1.75 ± 0.093
13 | GUGCUU | 1.96 ± 0.027 | 1.89 ± 0.019
14 | UUGGUG | 2.008 ± 0.0026 | 1.81 ± 0.054
15 | UUGGUU | 1.99 ± 0.037 | 1.91 ± 0.025
16 | UUGGUC | 1.97 ± 0.034 | 2.006 ± 0.0099
17 | UUGGUA | 1.937 ± 0.0068 | 1.885 ± 0.0069
18 | AUGCGU | 1.94 ± 0.025 | 1.819 ± 0.016
19 | CUUGUC | 2 ± 0.037 | 1.98 ± 0.04
20 | CUUGUG | 1.96 ± 0.056 | 1.883 ± 0.015
21 | CUUGUU | 1.909 ± 0.0024 | 1.9 ± 0.022
22 | CUUGUA | 1.94 ± 0.062 | 1.83 ± 0.045
23 | UUUCAG | 1.9 ± 0.021 | 1.71 ± 0.042
24 | UUUCAC | 1.9884 ± 0.0013 | 1.91 ± 0.031

Row | Variant | normalized RNA/DNA level with ligand (log10) [1] | normalized RNA/DNA level without ligand (log10) [2]
25 | UUUCAU | 1.915 ± 0.013 | 1.838 ± 0.0065
26 | UUUCAA | 1.9299 ± 0.00082 | 1.866 ± 0.015
27 | CUUCCU | 1.98 ± 0.038 | 1.96 ± 0.032
28 | CUUCCA | 1.93 ± 0.043 | 1.91 ± 0.091
29 | GUUGAA | 1.918 ± 0.016 | 1.744 ± 0.0083
30 | GUUGAC | 1.917 ± 0.015 | 1.72 ± 0.057
31 | UUUCCU | 2.05 ± 0.069 | 1.9175 ± 0.00088
32 | UUUCCC | 1.99 ± 0.024 | 1.96 ± 0.039
33 | UUUCCG | 1.99 ± 0.063 | 1.83 ± 0.07
34 | UUUCCA | 1.95 ± 0.037 | 1.894 ± 0.0032
35 | AUGGGC | 1.94 ± 0.064 | 1.81 ± 0.022
36 | AUGGGU | 1.88 ± 0.066 | 1.534 ± 0.0046
37 | AUGGGG | 1.88 ± 0.08 | 1.4 ± 0.081
38 | GUUAAA | 1.933 ± 0.0032 | 1.798 ± 0.0025
39 | GUUAAG | 1.853 ± 0.0019 | 1.48 ± 0.027
40 | GUGUCU | 1.95 ± 0.04 | 1.85 ± 0.019
41 | GUGUCC | 1.97 ± 0.036 | 1.776 ± 0.0043
42 | GUGUCA | 1.94 ± 0.052 | 1.77 ± 0.043
43 | AUUAGU | 1.95 ± 0.028 | 1.712 ± 0.0075
44 | GUUCAC | 1.96 ± 0.05 | 1.85 ± 0.023
45 | GUUCAU | 1.908 ± 0.016 | 1.783 ± 0.012
46 | GUUCAG | 1.82 ± 0.054 | 1.55 ± 0.057
47 | UUUGGC | 1.99 ± 0.059 | 1.92 ± 0.053
48 | UUUGGA | 1.93 ± 0.027 | 1.67 ± 0.026

Row | Variant | normalized RNA/DNA level with ligand (log10) [1] | normalized RNA/DNA level without ligand (log10) [2]
49 | UUUGGG | 1.92 ± 0.025 | 1.71 ± 0.035
50 | UUUGGU | 1.976 ± 0.0094 | 1.8 ± 0.027
51 | UUUCGA | 1.953 ± 0.013 | 1.915 ± 0.006
52 | UUUCGG | 1.964 ± 0.012 | 1.94 ± 0.072
53 | UUUCGU | 1.96 ± 0.0091 | 1.851 ± 0.0071
54 | UUUCGC | 1.95 ± 0.023 | 1.92 ± 0.047
55 | AUUCCC | 1.9 ± 0.031 | 1.87 ± 0.03
56 | AUUCCA | 1.92 ± 0.02 | 1.86 ± 0.042
57 | GUUGUC | 1.943 ± 0.0065 | 1.9 ± 0.052
58 | GUUAGC | 1.91 ± 0.023 | 1.683 ± 0.0085
59 | GUUAGU | 1.9 ± 0.1 | 1.786 ± 0.011
60 | CUUCUC | 2.041 ± 0.013 | 2.03 ± 0.059
61 | CUUCUU | 2.01 ± 0.066 | 1.868 ± 0.0019
62 | CUUCUA | 1.97 ± 0.051 | 1.85 ± 0.077
63 | CUUCUG | 1.948 ± 0.013 | 1.91 ± 0.053
64 | CUUAAA | 1.899 ± 0.0031 | 1.8 ± 0.036
65 | CUUAAU | 1.9 ± 0.0027 | 1.76 ± 0.028
66 | CUUAAG | 1.93 ± 0.081 | 1.69 ± 0.018
67 | UUGGGG | 1.91 ± 0.047 | 1.82 ± 0.042
68 | UUGGGA | 2.02 ± 0.07 | 1.71 ± 0.053
69 | UUGGGC | 2.05 ± 0.032 | 1.914 ± 0.012
70 | UUGGGU | 2.014 ± 0.011 | 1.82 ± 0.053
71 | CUUAGG | 1.94 ± 0.075 | 1.84 ± 0.053
72 | CUUAGC | 1.944 ± 0.011 | 1.87 ± 0.018

Row | Variant | normalized RNA/DNA level with ligand (log10) [1] | normalized RNA/DNA level without ligand (log10) [2]
73 | CUUAGA | 1.984 ± 0.0081 | 1.852 ± 0.0069
74 | CUUAGU | 1.936 ± 0.016 | 1.906 ± 0.0051
75 | GUGUAC | 1.92 ± 0.045 | 1.69 ± 0.11
76 | CUUAUG | 1.91 ± 0.039 | 1.91 ± 0.018
77 | CUUAUU | 1.95 ± 0.047 | 1.872 ± 0.005
78 | CUUAUC | 1.98 ± 0.02 | 1.987 ± 0.013
79 | UUUAUG | 1.92 ± 0.027 | 1.772 ± 0.014
80 | UUUAUC | 1.97 ± 0.03 | 1.99 ± 0.021
81 | UUUGAU | 1.9 ± 0.052 | 1.7965 ± 0.0012
82 | UUUGAC | 1.927 ± 0.0075 | 1.84 ± 0.037
83 | CUGUGC | 1.907 ± 0.018 | 1.86 ± 0.043
84 | CUGUGA | 1.976 ± 0.0082 | 1.82 ± 0.065
85 | CUGUGU | 1.95 ± 0.047 | 1.898 ± 0.0077
86 | GUUCCG | 1.94 ± 0.028 | 1.72 ± 0.048
87 | GUUCCA | 1.963 ± 0.017 | 1.9 ± 0.029
88 | GUUCCU | 1.99 ± 0.012 | 1.98 ± 0.056
89 | GUUCCC | 1.99 ± 0.021 | 1.92 ± 0.044
90 | GUGGUC | 1.96 ± 0.038 | 1.79 ± 0.054
91 | GUGGUU | 1.96 ± 0.064 | 1.875 ± 0.017
92 | CUGGUG | 1.94 ± 0.059 | 1.76 ± 0.022
93 | CUGGUC | 1.96 ± 0.026 | 1.93 ± 0.023
94 | CUGGUA | 1.93 ± 0.022 | 1.773 ± 0.01
95 | CUGGUU | 2.01 ± 0.024 | 1.858 ± 0.0054
96 | AUUCGU | 1.93 ± 0.0044 | 1.897 ± 0.018

Row | Variant | normalized RNA/DNA level with ligand (log10) [1] | normalized RNA/DNA level without ligand (log10) [2]
97 | AUUCGA | 1.91 ± 0.042 | 1.738 ± 0.015
98 | AUUCGC | 1.96 ± 0.04 | 1.89 ± 0.023
99 | UUUACG | 1.92 ± 0.035 | 1.76 ± 0.048
100 | UUUACA | 1.97 ± 0.04 | 1.912 ± 0.011
101 | UUUACU | 1.94 ± 0.024 | 1.876 ± 0.0032
102 | UUUACC | 1.957 ± 0.011 | 1.867 ± 0.014
103 | CUGUUG | 1.964 ± 0.0068 | 1.8708 ± 0.00036
104 | CUGUUC | 1.97 ± 0.021 | 1.861 ± 0.0058
105 | CUGUUU | 2.02 ± 0.046 | 1.956 ± 0.006
106 | UUGCGU | 1.97 ± 0.024 | 1.82 ± 0.067
107 | GUGGCA | 1.98 ± 0.02 | 1.83 ± 0.072
108 | GUGGCU | 1.96 ± 0.042 | 1.881 ± 0.0077
109 | GUGGCC | 1.98 ± 0.027 | 1.88 ± 0.023
110 | GUGGGC | 1.81 ± 0.1 | 1.33 ± 0.11
111 | GUUGCC | 1.9665 ± 0.0019 | 1.9 ± 0.033
112 | GUUGCG | 1.87 ± 0.041 | 1.58 ± 0.072
113 | GUUGCU | 1.97 ± 0.069 | 1.862 ± 0.0076
114 | CUGUAC | 1.93 ± 0.033 | 1.75 ± 0.093
115 | CUGUAG | 1.88 ± 0.024 | 1.65 ± 0.032
116 | CUGUAA | 1.917 ± 0.017 | 1.713 ± 0.006
